Assay results from publication PMC6570425, “Regulation of GLI1 by cis DNA elements and epigenetic marks”.

B1: GBS #3 (dsDNA)
DNA 1: AGGGGAGATATGGGTGGGCTGTGGAACGC
DNA 2: GCGTTCCACAGCCCACCCATATCTCCCCT
B2: GBS #4 (dsDNA)
DNA 1: AGCATCCCGGGATCACCCACCGCGCCGGC
DNA 2: GCCGGCGCGGTGGGTGATCCCGGGATGCT
B3: GBS #6 (dsDNA)
DNA 1: TCTACACACAGACCACACAGGCAAAGCTC
DNA 2: GAGCTTTGCCTGTGTGGTCTGTGTGTAGA
B4: GBS #5 (dsDNA)
DNA 1: AAGGTCGAGTTGGGAGGTCTTGGATGCGG
DNA 2: CCGCATCCAAGACCTCCCAACTCGACCTT
B5: GBS #2 (dsDNA)
DNA 1: GGCGGCGACTTGGGTGGGCCGAGGAGGCA
DNA 2: TGCCTCCTCGGCCCACCCAAGTCGCCGCC
B6: GBS #1 (dsDNA)
DNA 1: CTCTGGCTCAGACCACCCTGCCTGCCCTT
DNA 2: AAGGGCAGGCAGGGTGGTCTGAGCCAGAG

These binders were tested against GLI1 (aa 211-1106) (human, UniProt P08151 211-1106) (assay: EMSA; Roche DIG gel shift kit binding buffer (1X from 5X; composition, salt and pH not given), 155 fmol probe, 20 pmol competitor, 4 C 20 min, 5% TBE gel). Conditions: protein: recombinant; label: digoxigenin (or 32P); blunt.
GLI1 (aa 211-1106), sequence (P08151 211-1106): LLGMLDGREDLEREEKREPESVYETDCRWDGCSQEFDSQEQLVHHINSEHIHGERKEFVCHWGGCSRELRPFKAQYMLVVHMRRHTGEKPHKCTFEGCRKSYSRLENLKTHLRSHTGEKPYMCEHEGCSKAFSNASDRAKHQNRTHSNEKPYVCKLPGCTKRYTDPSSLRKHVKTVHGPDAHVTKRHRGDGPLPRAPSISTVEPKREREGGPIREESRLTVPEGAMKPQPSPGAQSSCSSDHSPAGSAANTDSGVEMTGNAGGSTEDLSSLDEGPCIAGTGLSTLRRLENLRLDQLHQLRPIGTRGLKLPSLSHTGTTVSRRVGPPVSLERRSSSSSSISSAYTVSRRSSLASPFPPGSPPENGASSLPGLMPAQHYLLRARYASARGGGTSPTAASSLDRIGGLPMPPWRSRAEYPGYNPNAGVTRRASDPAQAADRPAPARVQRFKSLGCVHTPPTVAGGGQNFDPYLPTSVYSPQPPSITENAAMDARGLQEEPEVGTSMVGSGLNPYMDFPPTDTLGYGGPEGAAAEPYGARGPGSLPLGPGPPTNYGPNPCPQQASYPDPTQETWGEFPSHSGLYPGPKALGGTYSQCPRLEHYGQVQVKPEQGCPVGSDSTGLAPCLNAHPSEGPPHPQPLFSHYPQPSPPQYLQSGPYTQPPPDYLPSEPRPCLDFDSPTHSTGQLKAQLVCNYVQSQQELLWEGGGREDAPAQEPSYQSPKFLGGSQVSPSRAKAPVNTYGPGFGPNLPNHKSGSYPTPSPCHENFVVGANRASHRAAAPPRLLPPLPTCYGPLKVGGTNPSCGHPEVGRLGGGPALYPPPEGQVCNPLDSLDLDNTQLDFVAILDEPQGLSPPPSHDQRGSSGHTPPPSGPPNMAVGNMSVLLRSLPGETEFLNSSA

Binder	binding result
B1	binds
B2	binds
B3	binds
B4	binds
B5	binds
B6	binds

What follows are binders tested against GLI2 (aa 84-355) (human, UniProt P10070-1 84-355) in the same assay as above. Conditions: protein: recombinant; tags: 6xHis; label: digoxigenin (or 32P); blunt.
GLI2 (aa 84-355), sequence (P10070 412-683): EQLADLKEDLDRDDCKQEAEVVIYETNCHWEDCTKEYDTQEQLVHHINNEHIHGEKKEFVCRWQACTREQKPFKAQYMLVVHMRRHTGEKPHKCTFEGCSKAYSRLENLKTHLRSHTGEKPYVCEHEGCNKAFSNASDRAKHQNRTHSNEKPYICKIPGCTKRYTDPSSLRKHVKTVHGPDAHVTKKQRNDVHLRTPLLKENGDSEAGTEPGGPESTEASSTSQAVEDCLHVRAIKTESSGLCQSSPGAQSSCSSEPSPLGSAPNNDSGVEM

Binder	binding result
B1	binds
B2	binds
B3	binds
B4	binds
B5	binds
B6	binds
